Results as given in the supplement of paper PMC12764529.
± gives the half width of the 95% confidence interval.

Experiments:
[1] = folding stability dG unfold from trypsin proteolysis; higher = more stable
Procedure, shortened: (§1)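 Only designs with AlphaFold2 dimer inter-PAE above 15 were retained; each was a mini-protein under 80 residues with no cysteine, in a PA-tagged cDNA display construct. After digestion with trypsin and chymotrypsin and sequencing, K50 was inferred by Bayesian fitting of counts, and unfolding free energy was derived per protease or combined against a sequence-predicted unfolded-state K50 and a shared folded-state K50.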

[2] = folding stability dG unfold from chymotrypsin proteolysis; higher = more stable
Procedure, shortened: as §1

[3] = folding stability dG unfold (combined trypsin and chymotrypsin); higher = more stable
Procedure, shortened: as §1

Sequence	folding stability dG unfold [1]	folding stability dG unfold [2]	folding stability dG unfold [3]
SEAEEAARKLAEELGLEVEVVEVDEETGTVTVRVRFEDEPTVTITITFDEETGELTVTIEVRPPPPPPPESA [r9_1119_TrROS_Hall]	3.49 ± 0.23 kcal/mol	3.51 ± 0.54 kcal/mol	3.72 ± 0.43 kcal/mol
SAGGSAMPGMTLQELLDAIRALLPPGARARIYVRNPDGEVIELTDLDDITVEDLENAEIRIEIEPVSAGGSA [r15_144_TrROS_Hall]	3.7 ± 0.1 kcal/mol	4.01 ± 0.052 kcal/mol	3.88 ± 0.076 kcal/mol
SAGGSAGGMFYVVRLEGPDGPLRTLVRPAESLEEARAFAEALAPEGARVTVEPLEEEEAERLLGSAGGSAGG [r6_267_TrMRF]	1.07 ± 0.057 kcal/mol	2.54 ± 0.053 kcal/mol	2.13 ± 0.065 kcal/mol
SAGGALKELPDGSVELYYNTETGLFTVRVRHPDKPPLVFTVESPEDALKFAKALEEKGIKIDKVVPAPSAGG [r13_727_TrMRF]	2.1 ± 0.068 kcal/mol	1.86 ± 0.065 kcal/mol	2.02 ± 0.14 kcal/mol
SAMEKGKALKYREVIPLPDGPVELEIIYFPETGEYVAIIRNPSTGEKVEIPFKFDSLEDAVKAAKDFVASAG [r14_65_TrMRF]	2.06 ± 0.11 kcal/mol	3.705 ± 0.029 kcal/mol	3.29 ± 0.076 kcal/mol
SAGGSEEFELEFRVEAASPEEAEALAEEIRKRLEDLGLDVEVEAETLEPGAVVVRPRVRVDPETGRLDSAGG [r13_697_TrMRF]	0.126 ± 0.24 kcal/mol	1.29 ± 0.065 kcal/mol	0.956 ± 0.16 kcal/mol
SAGGSAGGSAMTPETIKEKYPNVDYSPSPLGGKTVYTFTFPSGSTVTVTFNPGSATITTIAGSAGGSAGGSA [r18_13_JUSTAS]	2.26 ± 0.13 kcal/mol	3.38 ± 0.07 kcal/mol	2.96 ± 0.11 kcal/mol
SAGGSAGGSAGGTIEELVKAGKTVKVRVRLKNGETLEVEIRPDEVVEFPNIEEIEVEEVSAGGSAGGSAGGS [r10_700_TrROS_Hall]	0.784 ± 0.016 kcal/mol	1.86 ± 0.026 kcal/mol	1.51 ± 0.05 kcal/mol
SAGMIRIIVDGKEVEEIEMSEEELRALLADPNIKKARVFVNGEEKEVEVKEGEIKEKLPPGAVIRIEKSAGG [r19_152_TrROS_Hall]	1.45 ± 0.061 kcal/mol	2.04 ± 0.031 kcal/mol	1.79 ± 0.12 kcal/mol
SAGGSAGGSAATKQITYTPPGSNRTYSFTATLTEEDPVTGRKLLELTLPDGTPITLPEGELGSAGGSAGGSA [r18_334_JUSTAS]	0.191 ± 0.061 kcal/mol	0.0349 ± 0.08 kcal/mol	0.163 ± 0.067 kcal/mol
SAGEELIKKLAEELNLEVEIVSVEVDEETPTITVEVRVRNKDGEELTVRITITYDKETDEVHIEVEVLPSAG [r5_929_TrROS_Hall]	3.91 ± 0.14 kcal/mol	3.99 ± 0.26 kcal/mol	4.08 ± 0.2 kcal/mol
SAGMTTLTLSAKAPPGEAVVTLTVTLPDGTTVPLATRTVAPDEVANITVSFPSGEPIDPARLTVEVTPPSAG [r5_287_JUSTAS]	0.0521 ± 0.14 kcal/mol	0.137 ± 0.15 kcal/mol	0.157 ± 0.13 kcal/mol
SAEERVFLVPVERRPDGSVRLRFVRPDRVVELELPAGFTVEDALQALSAHPDLRVEVLEAHPDLVLVRGSAG [r14_404_TrMRF]	1.824 ± 0.017 kcal/mol	2.741 ± 0.023 kcal/mol	2.46 ± 0.054 kcal/mol
SAGGSAGGANTVTIELPNGFRITLNDDGTITISYYDPETGELVKTVTIKLPPPPPVVVVHEDDKSAGGSAGG [r6_572_TrROS_Hall]	3.1 ± 0.23 kcal/mol	3.39 ± 0.077 kcal/mol	3.35 ± 0.12 kcal/mol
SAGGKKEVILVIEIDLPESEEELLEEAERLAKELAELLGKEREVEVEVIEKDGKLIIVLRINGKEIVLSAGG [r13_845_TrROS_Hall]	2.78 ± 0.23 kcal/mol	2.68 ± 0.051 kcal/mol	2.52 ± 0.32 kcal/mol
SAGGSAGGSWIPLPDGYLIKITEVVPGGIRIKFPDMGNEITIPPGMPIKIKIIPVKDPDGEPISAGGSAGGS [r20_105_TrROS]	1.03 ± 0.056 kcal/mol	0.838 ± 0.05 kcal/mol	0.9 ± 0.14 kcal/mol
SEKVKITIEVWRPPGWWYVKIKLPDNGQEITYPFDSAEDFKEQIKKWLGLPPDNVKITDVEVYPMPPDDFSA [r9_909_TrROS]	1.82 ± 0.11 kcal/mol	3.14 ± 0.081 kcal/mol	2.52 ± 0.22 kcal/mol
SAGGSFSVDVPPDATVEVEEKVKRPDGSEVHLKITITRLPTSGKVLVTVEDNPPEKGSTTKEEIVPLESAGG [r13_934_JUSTAS]	-0.431 ± 0.38 kcal/mol	0.975 ± 0.068 kcal/mol	0.658 ± 0.28 kcal/mol
SAGGSAGGSKPELVIPITFPVLVKNPLDGKIYPVKVEIHIFYYPDKPIIEITLINPDGKPFPFSAGGSAGGS [r12_283_TrMRF]	2.13 ± 0.064 kcal/mol	1.67 ± 0.038 kcal/mol	1.93 ± 0.066 kcal/mol
SAGGSAKPELVKKLKEALEEEFPDLKVEVVKVDKKNKKIYIKVKSEEEKKRIAELLKKLGIEVEIESAGGSA [r15_196_TrROS_Hall]	3.06 ± 0.25 kcal/mol	3.33 ± 0.079 kcal/mol	3.18 ± 0.21 kcal/mol
SAGGSASRRLFVRTLPDDAVIVVEVPPGMSEEEAVEIAERRAEAAERVLRAAIEAERAGKAPVIPLSAGGSA [r15_704_TrMRF]	0.594 ± 0.13 kcal/mol	-0.0499 ± 0.29 kcal/mol	0.342 ± 0.11 kcal/mol
